# According to PMC3764422, “A model of yeast glycolysis based on a consistent kinetic characterisation of all its enzymes” (Febs Letters, 2013):
# B1: Eno2p (Saccharomyces cerevisiae S288C) (protein)
# chain: MAVSKVYARSVYDSRGNPTVEVELTTEKGVFRSIVPSGASTGVHEALEMRDEDKSKWMGKGVMNAVNNVNNVIAAAFVKANLDVKDQKAVDDFLLSLDGTANKSKLGANAILGVSMAAARAAAAEKNVPLYQHLADLSKSKTSPYVLPVPFLNVLNGGSHAGGALALQEFMIAPTGAKTFAEAMRIGSEVYHNLKSLTKKRYGASAGNVGDEGGVAPNIQTAEEALDLIVDAIKAAGHDGKVKIGLDCASSEFFKDGKYDLDFKNPESDKSKWLTGVELADMYHSLMKRYPIVSIEDPFAEDDWEAWSHFFKTAGIQIVADDLTVTNPARIATAIEKKAADALLLKVNQIGTLSESIKAAQDSFAANWGVMVSHRSGETEDTFIADLVVGLRTGQIKTGAPARSERLAKLNQLLRIEEELGDKAVYAGENFHHGDKL
# notes: N-terminally tagged full-length ORF, expressed in and purified from S. cerevisiae, assayed fresh
# B2: Eno1p (Saccharomyces cerevisiae S288C) (protein)
# chain: AVSKVYARSVYDSRGNPTVEVELTTEKGVFRSIVPSGASTGVHEALEMRDGDKSKWMGKGVLHAVKNVNDVIAPAFVKANIDVKDQKAVDDFLISLDGTANKSKLGANAILGVSLAASRAAAAEKNVPLYKHLADLSKSKTSPYVLPVPFLNVLNGGSHAGGALALQEFMIAPTGAKTFAEALRIGSEVYHNLKSLTKKRYGASAGNVGDEGGVAPNIQTAEEALDLIVDAIKAAGHDGKIKIGLDCASSEFFKDGKYDLDFKNPNSDKSKWLTGPQLADLYHSLMKRYPIVSIEDPFAEDDWEAWSHFFKTAGIQIVADDLTVTNPKRIATAIEKKAADALLLKVNQIGTLSESIKAAQDSFAAGWGVMVSHRSGETEDTFIADLVVGLRTGQIKTGAPARSERLAKLNQLLRIEEELGDNAVFAGENFHHGDKL
# notes: tagged full-length ORF, expressed in and purified from S. cerevisiae, assayed immediately after purification
# B3: Tdh1p (Saccharomyces cerevisiae S288C) (protein)
# chain: MIRIAINGFGRIGRLVLRLALQRKDIEVVAVNDPFISNDYAAYMVKYDSTHGRYKGTVSHDDKHIIIDGVKIATYQERDPANLPWGSLKIDVAVDSTGVFKELDTAQKHIDAGAKKVVITAPSSSAPMFVVGVNHTKYTPDKKIVSNASCTTNCLAPLAKVINDAFGIEEGLMTTVHSMTATQKTVDGPSHKDWRGGRTASGNIIPSSTGAAKAVGKVLPELQGKLTGMAFRVPTVDVSVVDLTVKLEKEATYDQIKKAVKAAAEGPMKGVLGYTEDAVVSSDFLGDTHASIFDASAGIQLSPKFVKLISWYDNEYGYSARVVDLIEYVAKA
# notes: tagged full-length ORF, expressed in and purified from S. cerevisiae
# B4: Pdc1p (Saccharomyces cerevisiae S288C) (protein)
# chain: SEITLGKYLFERLKQVNVNTVFGLPGDFNLSLLDKIYEVEGMRWAGNANELNAAYAADGYARIKGMSCIITTFGVGELSALNGIAGSYAEHVGVLHVVGVPSISAQAKQLLLHHTLGNGDFTVFHRMSANISETTAMITDIATAPAEIDRCIRTTYVTQRPVYLGLPANLVDLNVPAKLLQTPIDMSLKPNDAESEKEVIDTILALVKDAKNPVILADACCSRHDVKAETKKLIDLTQFPAFVTPMGKGSIDEQHPRYGGVYVGTLSKPEVKEAVESADLILSVGALLSDFNTGSFSYSYKTKNIVEFHSDHMKIRNATFPGVQMKFVLQKLLTTIADAAKGYKPVAVPARTPANAAVPASTPLKQEWMWNQLGNFLQEGDVVIAETGTSAFGINQTTFPNNTYGISQVLWGSIGFTTGATLGAAFAAEEIDPKKRVILFIGDGSLQLTVQEISTMIRWGLKPYLFVLNNDGYTIEKLIHGPKAQYNEIQGWDHLSLLPTFGAKDYETHRVATTGEWDKLTQDKSFNDNSKIRMIEIMLPVFDAPQNLVEQAKLTAATNAKQ
# notes: tagged full-length ORF, expressed in and purified from S. cerevisiae, assayed freshly purified
# B5: Glk1p (Saccharomyces cerevisiae S288C) (protein)
# chain: SFDDLHKATERAVIQAVDQICDDFEVTPEKLDELTAYFIEQMEKGLAPPKEGHTLASDKGLPMIPAFVTGSPNGTERGVLLAADLGGTNFRICSVNLHGDHTFSMEQMKSKIPDDLLDDENVTSDDLFGFLARRTLAFMKKYHPDELAKGKDAKPMKLGFTFSYPVDQTSLNSGTLIRWTKGFRIADTVGKDVVQLYQEQLSAQGMPMIKVVALTNDTVGTYLSHCYTSDNTDSMTSGEISEPVIGCIFGTGTNGCYMEEINKITKLPQELRDKLIKEGKTHMIINVEWGSFDNELKHLPTTKYDVVIDQKLSTNPGFHLFEKRVSGMFLGEVLRNILVDLHSQGLLLQQYRSKEQLPRHLTTPFQLSSEVLSHIEIDDSTGLRETELSLLQSLRLPTTPTERVQIQKLVRAISRRSAYLAAVPLAAILIKTNALNKRYHGEVEIGCDGSVVEYYPGFRSMLRHALALSPLGAEGERKVHLKIAKDGSGVGAALCALVA
# notes: tagged full-length ORF (mostly C-terminal tag, yeast ORF/GST/TAP collections), expressed in and purified from S. cerevisiae
# B6: Tdh3p (Saccharomyces cerevisiae S288C) (protein)
# chain: VRVAINGFGRIGRLVMRIALSRPNVEVVALNDPFITNDYAAYMFKYDSTHGRYAGEVSHDDKHIIVDGKKIATYQERDPANLPWGSSNVDIAIDSTGVFKELDTAQKHIDAGAKKVVITAPSSTAPMFVMGVNEEKYTSDLKIVSNASCTTNCLAPLAKVINDAFGIEEGLMTTVHSLTATQKTVDGPSHKDWRGGRTASGNIIPSSTGAAKAVGKVLPELQGKLTGMAFRVPTVDVSVVDLTVKLNKETTYDEIKKVVKAAAEGKLKGVLGYTEDAVVSSDFLGDSHSSIFDASAGIQLSPKFVKLVSWYDNEYGYSTRVVDLVEHVAKA
# notes: as for B3
# B7: Pdc6p (Saccharomyces cerevisiae S288C) (protein)
# chain: SEITLGKYLFERLKQVNVNTIFGLPGDFNLSLLDKIYEVDGLRWAGNANELNAAYAADGYARIKGLSVLVTTFGVGELSALNGIAGSYAEHVGVLHVVGVPSISAQAKQLLLHHTLGNGDFTVFHRMSANISETTSMITDIATAPSEIDRLIRTTFITQRPSYLGLPANLVDLKVPGSLLEKPIDLSLKPNDPEAEKEVIDTVLELIQNSKNPVILSDACASRHNVKKETQKLIDLTQFPAFVTPLGKGSIDEQHPRYGGVYVGTLSKQDVKQAVESADLILSVGALLSDFNTGSFSYSYKTKNVVEFHSDYVKVKNATFLGVQMKFALQNLLKVIPDVVKGYKSVPVPTKTPANKGVPASTPLKQEWLWNELSKFLQEGDVIISETGTSAFGINQTIFPKDAYGISQVLWGSIGFTTGATLGAAFAAEEIDPNKRVILFIGDGSLQLTVQEISTMIRWGLKPYLFVLNNDGYTIEKLIHGPHAEYNEIQTWDHLALLPAFGAKKYENHKIATTGEWDALTTDSEFQKNSVIRLIELKLPVFDAPESLIKQAQLTAATNAKQ
# notes: as for B4
# B8: Tdh2p (Saccharomyces cerevisiae S288C) (protein)
# chain: VRVAINGFGRIGRLVMRIALQRKNVEVVALNDPFISNDYSAYMFKYDSTHGRYAGEVSHDDKHIIVDGHKIATFQERDPANLPWASLNIDIAIDSTGVFKELDTAQKHIDAGAKKVVITAPSSTAPMFVMGVNEEKYTSDLKIVSNASCTTNCLAPLAKVINDAFGIEEGLMTTVHSMTATQKTVDGPSHKDWRGGRTASGNIIPSSTGAAKAVGKVLPELQGKLTGMAFRVPTVDVSVVDLTVKLNKETTYDEIKKVVKAAAEGKLKGVLGYTEDAVVSSDFLGDSNSSIFDAAAGIQLSPKFVKLVSWYDNEYGYSTRVVDLVEHVAKA
# notes: as for B3
# B9: Gpm1p (Saccharomyces cerevisiae S288C) (protein)
# chain: PKLVLVRHGQSEWNEKNLFTGWVDVKLSAKGQQEAARAGELLKEKKVYPDVLYTSKLSRAIQTANIALEKADRLWIPVNRSWRLNERHYGDLQGKDKAETLKKFGEEKFNTYRRSFDVPPPPIDASSPFSQKGDERYKYVDPNVLPETESLALVIDRLLPYWQDVIAKDLLSGKTVMIAAHGNSLRGLVKHLEGISDADIAKLNIPTGIPLVFELDENLKPSKPSYYLDPEAAAAGAAAVANQGKK
# notes: as for B3
# B10: Pgk1p (Saccharomyces cerevisiae S288C) (protein)
# chain: SLSSKLSVQDLDLKDKRVFIRVDFNVPLDGKKITSNQRIVAALPTIKYVLEHHPRYVVLASHLGRPNGERNEKYSLAPVAKELQSLLGKDVTFLNDCVGPEVEAAVKASAPGSVILLENLRYHIEEEGSRKVDGQKVKASKEDVQKFRHELSSLADVYINDAFGTAHRAHSSMVGFDLPQRAAGFLLEKELKYFGKALENPTRPFLAILGGAKVADKIQLIDNLLDKVDSIIIGGGMAFTFKKVLENTEIGDSIFDKAGAEIVPKLMEKAKAKGVEVVLPVDFIIADAFSADANTKTVTDKEGIPAGWQGLDNGPESRKLFAATVAKAKTIVWNGPPGVFEFEKFAAGTKALLDEVVKSSAAGNTVIIGGGDTATVAKKYGVTDKISHVSTGGGASLELLEGKELPGVAFLSEKK
# notes: as for B3
# B11: Pdc5p (Saccharomyces cerevisiae S288C) (protein)
# chain: MSEITLGKYLFERLSQVNCNTVFGLPGDFNLSLLDKLYEVKGMRWAGNANELNAAYAADGYARIKGMSCIITTFGVGELSALNGIAGSYAEHVGVLHVVGVPSISSQAKQLLLHHTLGNGDFTVFHRMSANISETTAMITDIANAPAEIDRCIRTTYTTQRPVYLGLPANLVDLNVPAKLLETPIDLSLKPNDAEAEAEVVRTVVELIKDAKNPVILADACASRHDVKAETKKLMDLTQFPVYVTPMGKGAIDEQHPRYGGVYVGTLSRPEVKKAVESADLILSIGALLSDFNTGSFSYSYKTKNIVEFHSDHIKIRNATFPGVQMKFALQKLLDAIPEVVKDYKPVAVPARVPITKSTPANTPMKQEWMWNHLGNFLREGDIVIAETGTSAFGINQTTFPTDVYAIVQVLWGSIGFTVGALLGATMAAEELDPKKRVILFIGDGSLQLTVQEISTMIRWGLKPYIFVLNNNGYTIEKLIHGPHAEYNEIQGWDHLALLPTFGARNYETHRVATTGEWEKLTQDKDFQDNSKIRMIEVMLPVFDAPQNLVKQAQLTAATNAKQ
# notes: as for B4
# Legend:
# Assay in all cases: purified protein
# Assay type in all cases: biochemical, Saccharomyces cerevisiae
# Conditions in all cases: standardised reaction buffer, 30 °C
# purified protein [1] = substrate: O=C(O)[C@@H](CO)OP(=O)(O)O
# purified protein [2] = substrate: O=C(O)[C@H](O)COP(=O)(O)O
# purified protein [3] = substrate: O=C[C@H](O)COP(=O)(O)O
# purified protein [4] = substrate: CC(=O)C(=O)O
# purified protein [5] = substrate: Nc1ncnc2c1ncn2[C@@H]1O[C@H](COP(=O)(O)OP(=O)(O)OP(=O)(O)O)[C@@H](O)[C@H]1O
# [6] = direction with ATP as co-substrate
protein,measurement,setting,value
B1,Km,purified protein [1],0.104 mM
same,kcat,purified protein [1],19.9 s⁻¹
B2,Km,purified protein [1],0.043 (SEM 10%) mM
same,kcat,purified protein [1],7.6 s⁻¹
same,kcat,purified protein [2]; product PEP,5.07 s⁻¹
B3,Km,purified protein [3],0.495 (SEM 7.5%) mM
same,kcat,purified protein [3],19.1 s⁻¹
B4,Km,purified protein [4],8.5 (SEM 10%) mM
same,kcat,purified protein [4],12.1 s⁻¹
B5,Km,purified protein [5],865 µM
same,kcat,purified protein [5],0.0721 s⁻¹
B6,Km,purified protein [3],0.423 (SEM 9.2%) mM
same,kcat,purified protein [3],18.2 s⁻¹
B7,Km,purified protein [4],2.92 mM
same,kcat,purified protein [4],9.21 s⁻¹
B8,Km,purified protein [3],0.77 mM
same,kcat,purified protein [3],8.63 s⁻¹
B9,Km,purified protein [1]; reverse reaction (P2G to P3G),1.41 mM
same,kcat,purified protein [1]; reverse reaction (P2G to P3G),400 s⁻¹
B10,Km,purified protein [2]; [6],4580 µM
same,kcat,purified protein [2]; [6],58.6 s⁻¹
B11,Km,purified protein [4],7.08 (SEM 5.7%) mM
same,kcat,purified protein [4],10.3 s⁻¹
